Reference: patent publication US20240360234A1 (NKARTA, published 2024)

T1: CD70-hFc complex (extracellular domain of human CD70 fused with the Fc region of human IgG1) (human) (UniProt P32970)
T1 sequence (looked up): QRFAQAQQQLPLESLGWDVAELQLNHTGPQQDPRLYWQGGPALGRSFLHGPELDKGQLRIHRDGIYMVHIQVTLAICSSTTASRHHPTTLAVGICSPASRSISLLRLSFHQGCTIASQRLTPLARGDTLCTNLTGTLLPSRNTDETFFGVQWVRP


Key:
[1] = molecular target: T2, CD27 (endogenous, on Jurkat cells) (UniProt P26842 20-260, limits assumed); assay: flow cytometry, CD70-hFc at 2 or 10 ug/ml on native Jurkat cells, anti-human Fc-APC detection
T2 construct: whole, on cells; also called the ligand for CD70
Method: FIGS. 27A-27F show data related to the ability of anti-CD70 CAR-expressing Jurkat cells to bind human bind CD70. […] Moving left to right are negative control, control for the antibody to human Fc, binding when 2 ug/ml of a CD70-hFc complex is incubated with the Jurkat cells and binding is detected with the human Fc-APC antibody, and binding when 10 ug/ml of a CD70-hFc complex is incubated with the Jurkat cells and binding is detected with the human Fc-APC antibody. […] Moving left to right is a control for the antibody to murine Fc, binding when 2 ug/ml of a CD70-murine Fc complex is incubated with the Jurkat cells and binding is detected with a murine Fc-APC antibody, and binding when 10 ug/ml of a CD70-murine Fc complex is incubated with the Jurkat cells and binding is detected with the murine Fc-APC antibody, and detection of Flag tag (present in the NK71/72 CAR constructs, but not native Jurkat cells). […] Moving left to right are negative control, control for the antibody to human Fc, binding when 2 ug/ml of a CD70-hFc complex is incubated with the Jurkat cells and binding is detected with the human Fc-APC antibody, and binding when 10 ug/ml of a CD70-hFc complex is incubated with the Jurkat cells and binding is detected with the human Fc-APC antibody. […]

[2] = molecular target: T1, CD70-hFc complex (extracellular domain of human CD70 fused with the Fc region of human IgG1) (human); assay: flow cytometry, CD70-hFc at 10 ug/mL on NK71-transduced Jurkat cells (about 16% NK71 positive; the cells also carry endogenous CD27)
[3] = molecular target: T1, CD70-hFc complex (extracellular domain of human CD70 fused with the Fc region of human IgG1) (human); assay: flow cytometry, CD70-hFc at 2 ug/mL on NK71-transduced Jurkat cells (about 16% NK71 positive; the cells also carry endogenous CD27)

T2 sequence (P26842 20-260 limits assumed): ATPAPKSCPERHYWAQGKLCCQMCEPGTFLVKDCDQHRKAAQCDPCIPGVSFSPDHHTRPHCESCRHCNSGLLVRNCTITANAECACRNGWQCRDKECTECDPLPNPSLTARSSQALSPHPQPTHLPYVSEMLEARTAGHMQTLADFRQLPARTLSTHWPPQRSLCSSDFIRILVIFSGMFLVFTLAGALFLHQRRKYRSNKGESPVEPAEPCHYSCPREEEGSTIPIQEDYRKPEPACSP

binding result [1]	percent of Jurkat cells binding CD70 [2]	percent of Jurkat cells binding CD70 [3]	Binder
binds	–	–	CD70-hFc complex (extracellular domain of human CD70 fused with the Fc region of human IgG1) (Fc fusion, UniProt P32970 39-193, looked up, range 39-193; Soluble reagent added at 2 or 10 ug/ml and detected with an anti-human Fc-APC antibody; not shown: Fc region of human IgG1, at the N-terminus of the fusion) QRFAQAQQQLPLESLGWDVAELQLNHTGPQQDPRLYWQGGPALGRSFLHGPELDKGQLRIHRDGIYMVHIQVTLAICSSTTASRHHPTTLAVGICSPASRSISLLRLSFHQGCTIASQRLTPLARGDTLCTNLTGTLLPSRNTDETFFGVQWVRP
–	> 80%	50%	NK71 anti-CD70 CAR (scFv, not shown: a dimerising Fc or GST; small tags and cut ends) scFv: QVTLKESGPVLVKPTETLTLTCTVSGFSLSNARMGVTWIRQPPGKALEWLAHIFSNDEKSYSTSLKSRLTISKDTSKTQVVLTMTNMDPVDTATYYCARIRDYYDISSYYDYWGQGTLVSVSSGGGGSGGGGSGGGGSDIQMTQSPSAMSASVGDRVTITCRASQDISNYLAWFQQKPGKVPKRLIYAASSLQSGVPSRFSGSGSGTEFTLTISSLLPEDFATYYCLQLNSFPFTFGGGTKVEIN
